One substance from patent US20100247562A1 can be followed below.

The target of assay [1] is human MUC1 (human) (UniProt P15941). The experiment in a line: co-immunoprecipitation with anti-HSP70, anti-MUC1 immunoblot, densitometry; lane 6 (taken to be FC/MUC1 fusion cells). Background: A western blot detects proteins with antibodies after separation by electrophoresis.
The target is the same in assay [2]. Put plainly: co-immunoprecipitation with anti-HSP70, anti-MUC1 immunoblot, densitometry; lane 4 (taken to be MC38/MUC1 tumor cells).

Chain of HSP70 (endogenous, immunoprecipitated with anti-HSP70 antibody Ab46 or purified by ADP-agarose from MC38/MUC1 tumor cells or FC/MUC1 DC-tumor fusion cells) (Q61696 2-641): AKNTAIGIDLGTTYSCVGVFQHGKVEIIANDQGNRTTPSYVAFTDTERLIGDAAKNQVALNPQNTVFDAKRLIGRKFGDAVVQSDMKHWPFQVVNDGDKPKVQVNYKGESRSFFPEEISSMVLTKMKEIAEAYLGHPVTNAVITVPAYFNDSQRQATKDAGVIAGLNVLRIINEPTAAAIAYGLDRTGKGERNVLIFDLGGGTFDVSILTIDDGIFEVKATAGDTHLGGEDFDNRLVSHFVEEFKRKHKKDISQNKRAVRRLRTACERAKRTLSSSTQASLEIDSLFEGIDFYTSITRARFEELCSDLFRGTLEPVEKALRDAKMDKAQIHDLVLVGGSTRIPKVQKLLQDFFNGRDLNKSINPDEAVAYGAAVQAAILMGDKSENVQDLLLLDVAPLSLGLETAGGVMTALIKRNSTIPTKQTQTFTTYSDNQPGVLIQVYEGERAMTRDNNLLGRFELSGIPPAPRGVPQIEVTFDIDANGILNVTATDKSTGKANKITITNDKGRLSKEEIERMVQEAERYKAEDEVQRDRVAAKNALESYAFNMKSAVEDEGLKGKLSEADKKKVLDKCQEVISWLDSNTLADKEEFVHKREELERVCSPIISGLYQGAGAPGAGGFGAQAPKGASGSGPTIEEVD
Chain of UniProt P15941 (P15941 24-1255 limits assumed): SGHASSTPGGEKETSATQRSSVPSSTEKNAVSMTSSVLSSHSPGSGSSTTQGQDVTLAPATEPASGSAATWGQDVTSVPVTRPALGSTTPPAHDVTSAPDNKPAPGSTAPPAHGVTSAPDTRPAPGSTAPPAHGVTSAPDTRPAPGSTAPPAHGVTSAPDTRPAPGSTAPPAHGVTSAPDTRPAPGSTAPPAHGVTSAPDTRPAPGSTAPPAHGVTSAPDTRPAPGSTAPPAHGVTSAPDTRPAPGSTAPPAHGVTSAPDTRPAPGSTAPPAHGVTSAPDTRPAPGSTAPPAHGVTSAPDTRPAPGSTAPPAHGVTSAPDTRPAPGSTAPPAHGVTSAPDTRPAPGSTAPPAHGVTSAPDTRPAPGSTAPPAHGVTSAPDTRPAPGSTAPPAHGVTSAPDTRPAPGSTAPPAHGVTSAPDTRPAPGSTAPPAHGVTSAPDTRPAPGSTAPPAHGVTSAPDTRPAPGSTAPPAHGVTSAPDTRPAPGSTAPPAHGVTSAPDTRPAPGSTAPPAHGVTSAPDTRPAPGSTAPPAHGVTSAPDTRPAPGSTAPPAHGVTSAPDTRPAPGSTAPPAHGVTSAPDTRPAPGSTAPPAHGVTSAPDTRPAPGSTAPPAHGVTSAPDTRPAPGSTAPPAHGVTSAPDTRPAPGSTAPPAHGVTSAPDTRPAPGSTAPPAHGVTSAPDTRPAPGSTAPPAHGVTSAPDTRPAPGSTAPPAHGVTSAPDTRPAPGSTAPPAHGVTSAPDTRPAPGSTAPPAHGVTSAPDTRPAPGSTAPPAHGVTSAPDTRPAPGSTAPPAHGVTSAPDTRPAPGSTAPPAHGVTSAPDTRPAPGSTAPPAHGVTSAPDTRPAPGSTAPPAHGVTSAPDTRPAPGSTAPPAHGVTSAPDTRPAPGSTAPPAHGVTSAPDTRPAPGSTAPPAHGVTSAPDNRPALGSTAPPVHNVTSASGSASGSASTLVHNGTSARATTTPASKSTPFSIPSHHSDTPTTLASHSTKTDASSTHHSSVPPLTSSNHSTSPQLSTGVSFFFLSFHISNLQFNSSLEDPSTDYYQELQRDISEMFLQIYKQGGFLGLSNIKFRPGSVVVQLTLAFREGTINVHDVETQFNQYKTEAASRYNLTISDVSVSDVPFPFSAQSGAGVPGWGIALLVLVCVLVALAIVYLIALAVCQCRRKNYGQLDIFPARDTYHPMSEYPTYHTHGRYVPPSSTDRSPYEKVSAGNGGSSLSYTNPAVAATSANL

Regarding “HSP70 (endogenous, immunoprecipitated with anti-HSP70 antibody Ab46 or purified by ADP-agarose from MC38/MUC1 tumor cells or FC/MUC1 DC-tumor fusion cells)”, in the assay with human MUC1 (human) [1], the relative density of MUC1 (lane 6) turned out to be 41.5%. Further, the relative density of MUC1 (lane 4) in the assay with human MUC1 (human) [2] was determined as 10.7%.
